The chains are these.
T1: Cynomolgus macaques TSLP recombinant protein (Cynomolgus macaques, UniProt Q969D9 29-159 (human entry), limits assumed, biotinylated in the blocking assays (sites not given))
T1 construct: also called cyTSLP; biotinylated Cynomolgus macaques TSLP protein
T1 chain: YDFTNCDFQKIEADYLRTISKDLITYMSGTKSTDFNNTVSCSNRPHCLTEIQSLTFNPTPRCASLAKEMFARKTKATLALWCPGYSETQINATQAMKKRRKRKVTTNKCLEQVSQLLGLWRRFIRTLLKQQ

B1: Ab24 (antibody, V domains shown)
VH: QVQLVQSGAEVKKPGSSVKVSCKASGYTFTDYWMHWVRQAPGQGLEWMGIIDPSDSDTSLNQKFQGRVTLTVDTSTSTAYMELSSLRSEDTAVYYCARSLDGYYDYWGQGTLVTVSS
VL: DIQMTQSPSSLSASVGDRVTITCRTSENIYSYLAWYQQKPGKAPKLLIYFAKTLTDGVPSRFSGSGSGTDFTLTISSLQPEDFATYYCQHHYGTPWTFGQGTKVEIK
notes: Humanized; also called h39G5VHv5/h71G4VKv1; h39G5VHv5/h71G4VKv1 hIgG1
B2: Ab23 (antibody, V domains shown)
VH: B1 VH with T28S, T30I, D31S, M34I, L70I, V72A, T74E
VL: B1 VL
notes: Humanized; also called h39G5VHv2/h71G4VKv1; h39G5VHv2/h71G4VKv1 hIgG1
B3: Ab22 (antibody, V domains shown)
VH: B1 VH with T28S, T30I, D31S, M34I, T74K, T76S, S77T
VL: B1 VL
notes: Humanized; also called h39G5VHv1/h71G4VKv1; h39G5VHv1/h7IG4VKv1 hIgG1
B4: Ab26 (antibody, V domains shown)
VH: B1 VH with L70I, V72A
VL: B1 VL
notes: Humanized; also called h39G5VHv10/h71G4VKv1; h39G5VHv10/h71G4VKv1 hIgG1
B5: Murine anti-71G4 (mAb71G4) (antibody, V domains shown)
VH: QVQLQQSGAELVMPGASVKMSCKASGYTFTDYWMHWVKQRPGQGLEWIGTIDNSDSDTTYNQKFKGKVTLTVDESSSTAYMQLSSLTSEDSAVYYCARSVDGYLDYWGQGTTLTVSS
VL: EIQMTQSPASLSASVGETVTITCRTSENIYSYLAWYQQKQGKSPQLLVYFAKTLTDGVPSRLSGSGSGTQFSLKINSLQPEDFGSYYCQHHYGTPWTFGGGTKLEIK
notes: also called murine antibody 71G4
B6: Murine anti-39G5 (mAb39G5) (antibody, V domains shown)
VH: QVQLLQSGPQLVRPGASVKISCKASGYSFISYWIHWVKQRPGQGLEWIGIIDPSDSDTSLNQKFKDKATLTVDKSSTTAYIQLSSPTSEDSAVYYCARSLDGYYDYWGQGTTLTVSS
VL: B5 VL with E1D, T25A, F50N, K52R, T55P, D56E, L62F, S85I, G93T
notes: also called murine antibody 39G5
B7: 76A8 chimeric antibody (antibody, V domains shown)
VH: QVQLQQSGPQLVRPGASVKISCKASGYSFTSYWMHWVKQRPGQGLEWIGLIDPSDSETGLNQRFKDKATLTVDNPSSTAYMQLSSPTSEDSAVYYCARSLDGYYDYWGQGTTLTVSS
VL: DIQMIQSPASLSASVGETVTITCRASGNIHNYLAWYQQKQGKSPQLLVYNAKTLADGVPSRFSGSGSGTQYSLKINSLQPEDFGSYYCQHFWSTPWTFGGGTRLEIK
B8: 80E11 chimeric antibody (antibody, V domains shown)
VH: B7 VH with L50V, G59I, R63K, N74K, P75S, L83F
VL: B7 VL with I5T, S26G, G27E, H30Y, N31S, D56E, G66A, Y71F, S93G, T97A
B9: 80B12 chimeric antibody (antibody, V domains shown)
VH: B7 VH with S31T, S56G, T58A, R63N, N74I, P75S, S77R, L83I, Y95F
VL: B7 VL with I5T, G27E, N28D, H30Y, N31S, D56E, Y71F, R103K, I106L
B10: 79D6 chimeric antibody (antibody, V domains shown)
VH: B5 VH with D31G
VL: B5 VL with E1D, T5I, T25A, K39I, F50Y, T55P, D56E, L62F
B11: 71G4 chimeric antibody (antibody, V domains shown)
VH: B5 VH
VL: B5 VL

Substitutions are numbered along the chain they refer to.

The first assay concerns the target T2, human TSLP recombinant protein (human, UniProt Q969D9 29-159, biotinylated in the blocking and cell-binding assays (sites not given)).
T2 construct: also called biotinylated human TSLP protein
The experiment in a line: SPR BIAcore T200, antibody captured on Protein A, human TSLP injected.
One may read the Kd as the equilibrium constant for the complex coming apart. What is called koff is the first-order rate constant of dissociation. One may read the kon as the second-order rate constant of association. As to B1, the equilibrium dissociation constant (Kd) came to 0.0234 pM, the koff came to 3.99e-08 s⁻¹ and the kon stood at 1.7e+06 M⁻¹ s⁻¹.

B2: the Kd turned out to be 0.0812 pM, the off-rate (koff) came out at 1.61e-07 s⁻¹ and the kon worked out at 1.98e+06 M⁻¹ s⁻¹.

Consider B3, for which the dissociation constant (Kd) was determined as 0.064 pM, the koff was 1.07e-07 s⁻¹ and the kon is 1.68e+06 M⁻¹ s⁻¹.

For B4, the Kd was 2.03 pM, the koff was found to be 2.79e-06 s⁻¹ and the kon amounted to 1.37e+06 M⁻¹ s⁻¹.

The next assay deals with T2, human TSLP recombinant protein. The experiment in a line: ELISA on coated human TSLP. (In general: In an ELISA, binding on a coated surface is turned into a signal by an enzyme label.)
Protocol: (§1) The plate was washed three times with PBS and blocked by adding 200 μL/well of PBS containing 2% skim milk for 1 hour. […] After washing with PBST and PBS three times, respectively, 100 μL of TMB substrate was added to each well for color development at 37° C. for 10 minutes, the reaction was terminated with 50 μL of 2M sulfuric acid solution per well, and the absorbance was read at a wavelength of 450 nm.
For orientation: EC50 means the concentration at which the effect is half-maximal. With B1, the EC50 was determined as 220 pM.

Consider B2, for which the concentration giving a half-maximal response (EC50) is 240 pM.

Consider B3, for which the EC50 worked out at 290 pM.

Turning to B4, the concentration for a half-maximal effect (EC50) was 180 pM.

Another assay has as its target T1, Cynomolgus macaques TSLP recombinant …. The experiment in a line: competition ELISA, biotin-cynomolgus TSLP to coated cynomolgus TSLPR-Fc.
Protocol: Cynomolgus macaques TSLPR recombinant protein was coated onto a 96-well microtiter plate at 1 g/mL in carbonate buffer overnight at 4° C. The plate was washed three times with PBS and blocked by adding 200 μL/well of PBS containing 2% skim milk for 1 hour. […] The 96-well plate was washed three times with PBS, and 100 μL of the incubated mixture was added to each well and incubated for 1 hour at room temperature. After washing with PBST and PBS three times, respectively, 100 μL of SA-HRP was added to each well and incubated at room temperature for 30 minutes in the dark. After washing with PBST and PBS three times, respectively, 100 μL of TMB substrate was added to well for color development at 37° C. for 10 minutes, the reaction was terminated with 50 μL of 2M sulfuric acid solution per well, and the absorbance was read at a wavelength of 450 nm.
By IC50 is commonly meant the concentration that inhibits the measured activity by half. B1: the half-maximal inhibitory concentration (IC50) was found to be 1630 pM.

As for B2, the concentration for half-maximal inhibition (IC50) amounted to 1540 pM.

In the case of B3, the IC50 stood at 1000 pM.

With B4, the IC50 is 690 pM.

B5: the 50% inhibitory concentration (IC50) was 470 pM.

Regarding B6, the IC50 was 1600 pM.

The next assay concerns the target T2, human TSLP recombinant protein. Description: ELISA on coated human TSLP. This is another data set of the same source.
Protocol: as §1
As to B7, the EC50 stood at 260 pM.

With B8, the half-maximal effective concentration (EC50) was found to be 150 pM.

B9: the EC50 came out at 340 pM.

B10: the EC50 was determined as 580 pM.

For the molecule B11, the concentration giving a half-maximal response (EC50) stood at 320 pM.

Another assay shares this target. Description: flow cytometry competition, biotin-human TSLP to Ba/F3-hTSLPR-IL7Rα cells.
Protocol: Ba/F3-hTSLPR-IL7Rα cells were washed three times with PBS, centrifuged at 300 g for 3 minutes, and blocked with 3% BSA/PBS for 30 minutes. The cells were resuspended and added to a 96-well U-plate at 5×10⁴/well.
On to B1, for which the IC50 amounted to 360 pM.

As to B2, the 50% inhibitory concentration (IC50) turned out to be 330 pM.

Regarding B3, the IC50 is 390 pM.

For the molecule B4, the IC50 was found to be 390 pM.

Turning to B5, the concentration for half-maximal inhibition (IC50) came to 270 pM.

As for B6, the concentration for half-maximal inhibition (IC50) came out at 360 pM.

For a further assay the target is unchanged. Description: cell-based or functional assay.
Regarding B7, the “Inhibition IC50 of STAT5 reporter gene” value stood at 9780 pM.

For the molecule B8, the “Inhibition IC50 of STAT5 reporter gene” value came out at 13600 pM.

With B9, the “Inhibition IC50 of STAT5 reporter gene” value worked out at 5790 pM.

As to B10, the “Inhibition IC50 of STAT5 reporter gene” value is 9610 pM.

Consider B11, for which the “Inhibition IC50 of STAT5 reporter gene” value is 1670 pM.

Another assay shares this target. The experiment in a line: competition ELISA, biotin-human TSLP to coated human TSLPR-Fc.
Protocol: (§2) Human TSLPR recombinant protein was coated onto a 96-well microtiter plate at 1 μg/mL in carbonate buffer overnight at 4° C. The plate was washed three times with PBS and blocked by adding 200 μL/well of PBS containing 2% skim milk for 1 hour. […] The 96-well plate was washed three times with PBS, and 100 μL of the incubated mixture was added to each well and incubated for 1 hour at room temperature. After washing with PBST and PBS three times, respectively, 100 μL of SA-HRP was added to each well and incubated at room temperature for 30 minutes in the dark. After washing with PBST and PBS three times, respectively, 100 μL of TMB substrate was added to well for color development at 37° C. for 10 minutes, the reaction was terminated with 50 μL of 2M sulfuric acid solution per well, and the absorbance was read at a wavelength of 450 nm.
As for B7, the 50% inhibitory concentration (IC50) was 1420 pM.

With B8, the IC50 was 1800 pM.

B9: the IC50 came out at 2580 pM.

With B10, the 50% inhibitory concentration (IC50) turned out to be 1350 pM.

B11: the IC50 is 1520 pM.

The next assay concerns the target T1, Cynomolgus macaques TSLP recombinant …. The experiment in a line: SPR BIAcore T200, antibody captured on Protein A, cynomolgus TSLP injected. Background: Surface plasmon resonance follows binding to a sensor surface in real time, without labels.
Protocol: After each injection cycle, the Protein A chip surface was regenerated with regeneration buffer 10 mM glycine (pH 2.0) at a flow rate of 30 μL/min. The association rate constant (ka) and dissociation rate constant (kd) and equilibrium dissociation constant KD were analyzed by fitting the resulting data to a Langmuir 1:1 kinetics theoretical model using BIAevaluation software.
With B1, the equilibrium dissociation constant (Kd) was 0.179 pM, the koff amounted to 2.85e-07 s⁻¹ and the kon came to 1.59e+06 M⁻¹ s⁻¹.

For B2, the dissociation constant Kd came out at 0.00708 pM, the off-rate (koff) came out at 1.36e-08 s⁻¹ and the on-rate constant (kon) amounted to 1.93e+06 M⁻¹ s⁻¹.

On to B3, for which the equilibrium dissociation constant (Kd) stood at 0.0421 pM, the koff came out at 6.7e-08 s⁻¹ and the kon was determined as 1.59e+06 M⁻¹ s⁻¹.

B4: the Kd was determined as 0.308 pM, the koff worked out at 3.82e-07 s⁻¹ and the kon came out at 1.24e+06 M⁻¹ s⁻¹.

For the next assay the target is unchanged. The experiment in a line: ELISA on coated cynomolgus TSLP.
Protocol: as §1
For B7, the EC50 was 470 pM.

Consider B8, for which the EC50 stood at 570 pM.

As for B9, the EC50 is 550 pM.

In the case of B10, the half-maximal effective concentration (EC50) is 730 pM.

Consider B11, for which the half-maximal effective concentration (EC50) was 600 pM.

In another assay the target is T2, human TSLP recombinant protein. Description: SPR BIAcore T200, antibody captured on Protein A, human TSLP injected. This is another data set of the same source.
Protocol: After each injection cycle, the Protein A chip surface was regenerated with regeneration buffer 10 mM glycine (pH 2.0) at a flow rate of 30 μL/min.
The association rate constant (ka) and dissociation rate constant (kd) and equilibrium dissociation constant KD were analyzed by fitting the resulting data to a Langmuir 1:1 kinetics theoretical model using BIAevaluation software.
Take B7: the Kd came out at 26 pM, the dissociation rate constant (koff) worked out at 8.36e-05 s⁻¹ and the on-rate (kon) amounted to 3.22e+06 M⁻¹ s⁻¹.

As to B8, the equilibrium dissociation constant (Kd) stood at 18.5 pM, the off-rate (koff) was found to be 0.000123 s⁻¹ and the kon was determined as 6.62e+06 M⁻¹ s⁻¹.

As for B9, the Kd is 22.4 pM, the koff was found to be 0.000108 s⁻¹ and the association rate constant (kon) stood at 4.82e+06 M⁻¹ s⁻¹.

For the molecule B10, the dissociation constant (Kd) was 20.4 pM, the koff amounted to 8.77e-05 s⁻¹ and the kon came to 4.31e+06 M⁻¹ s⁻¹.

As for B11, the Kd was 10 pM, the koff is 3.16e-05 s⁻¹ and the kon stood at 3.15e+06 M⁻¹ s⁻¹.

The target is the same in the next assay. The experiment in a line: cell-based or functional assay. The source holds these as a separate data set.
For B11, the “Inhibition IC50 of cell proliferation” value was 12700 pM.

The target in the next assay is T1, Cynomolgus macaques TSLP recombinant …. Description: ELISA on coated cynomolgus TSLP. This is another data set of the same source.
Protocol: as §1
As for B1, the concentration for a half-maximal effect (EC50) turned out to be 1370 pM.

Regarding B2, the half-maximal effective concentration (EC50) stood at 830 pM.

Take B3: the 50% effective concentration (EC50) was 770 pM.

For the molecule B4, the concentration for a half-maximal effect (EC50) amounted to 950 pM.

The next assay deals with T2, human TSLP recombinant protein. Description: cell-based or functional assay. This is another data set of the same source.
In the case of B1, the “Inhibition of Cell Proliferation IC50” value was found to be 1040 pM.

With B2, the “Inhibition of Cell Proliferation IC50” value is 1100 pM.

Take B3: the “Inhibition of Cell Proliferation IC50” value was determined as 2200 pM.

As to B4, the “Inhibition of Cell Proliferation IC50” value worked out at 1500 pM.

On to B5, for which the “Inhibition of Cell Proliferation IC50” value was 30700 pM.

Regarding B6, the “Inhibition of Cell Proliferation IC50” value was determined as 58900 pM.

The target is the same in another assay. The experiment in a line: cell-based or functional assay. The source holds these as a separate data set.
Consider B1, for which the “STAT5 signal inhibition IC50” value is 150 pM.

As to B2, the “STAT5 signal inhibition IC50” value was 170 pM.

B3: the “STAT5 signal inhibition IC50” value was determined as 170 pM.

With B4, the “STAT5 signal inhibition IC50” value was 180 pM.

With B5, the “STAT5 signal inhibition IC50” value is 1140 pM.

As to B6, the “STAT5 signal inhibition IC50” value amounted to 4920 pM.

For a further assay the target is unchanged. The experiment in a line: competition ELISA, biotin-human TSLP to coated human TSLPR-Fc. The source holds these as a separate data set.
Protocol: as §2
In the case of B1, the IC50 amounted to 2010 pM.

Regarding B2, the IC50 was determined as 1760 pM.

B3: the IC50 turned out to be 1800 pM.

For B4, the IC50 is 1660 pM.

For B5, the IC50 came to 1980 pM.

On to B6, for which the IC50 is 1950 pM.

The next assay addresses T1, Cynomolgus macaques TSLP recombinant …. Description: competition ELISA, biotin-cynomolgus TSLP to coated cynomolgus TSLPR-Fc. This is another data set of the same source.
Protocol: Cynomolgus macaques TSLPR recombinant protein was coated onto a 96-well microtiter plate at 1 μg/mL in carbonate buffer overnight at 4° C. The plate was washed three times with PBS and blocked by adding 200 μL/well of PBS containing 2% skim milk for 1 hour. […] The 96-well plate was washed three times with PBS, and 100 μL of the incubated mixture was added to each well and incubated for 1 hour at room temperature. After washing with PBST and PBS three times, respectively, 100 μL of SA-HRP was added to each well and incubated at room temperature for 30 minutes in the dark. After washing with PBST and PBS three times, respectively, 100 μL of TMB substrate was added to well for color development at 37° C. for 10 minutes, the reaction was terminated with 50 μL of 2M sulfuric acid solution per well, and the absorbance was read at a wavelength of 450 nm.
Consider B7, for which the IC50 was 730 pM.

With B8, the IC50 is 1150 pM.

For the molecule B9, the 50% inhibitory concentration (IC50) is 540 pM.

B10: the half-inhibitory concentration (IC50) worked out at 310 pM.

For B11, the concentration for half-maximal inhibition (IC50) was 560 pM.

For the origin of these results see patent US20230029835A1 (KEYMED BIOSCIENCES, published 2023).
